Measured values reported in PMC11389873 (Free radical biology & medicine, 2022).

What was measured:
[1] = molecular target: Purified recombinant human apo-IDO1 (His6-IDO1), Alexafluor 647-labelled (human, UniProt P14902 1-403, Alexafluor 647 on Cys groups); experiment: fluorescence polarisation
[2] = molecular target: Purified recombinant human apo-TDO (GST-TDO), Alexafluor 647-labelled (human, UniProt P48775 1-406, Alexafluor 647 on Cys groups); experiment: fluorescence polarisation
Purified recombinant human apo-TDO (GST-TDO), Alexafluor 647-labelled, sequence (P48775 whole entry): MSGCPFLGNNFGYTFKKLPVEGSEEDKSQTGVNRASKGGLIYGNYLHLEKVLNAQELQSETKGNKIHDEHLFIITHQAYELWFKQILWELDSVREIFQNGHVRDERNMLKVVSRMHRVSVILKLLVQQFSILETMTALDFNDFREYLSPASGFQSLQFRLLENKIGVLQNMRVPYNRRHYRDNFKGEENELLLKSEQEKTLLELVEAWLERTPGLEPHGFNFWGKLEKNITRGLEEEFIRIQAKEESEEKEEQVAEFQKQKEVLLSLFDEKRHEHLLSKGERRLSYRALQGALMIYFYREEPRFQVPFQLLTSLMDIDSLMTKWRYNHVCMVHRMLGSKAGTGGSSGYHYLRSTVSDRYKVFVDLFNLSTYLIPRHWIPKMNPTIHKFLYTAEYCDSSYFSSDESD

Purified recombinant human apo-IDO1 (His6-IDO1), Alexafluor 647-labelled, sequence (P14902 whole entry): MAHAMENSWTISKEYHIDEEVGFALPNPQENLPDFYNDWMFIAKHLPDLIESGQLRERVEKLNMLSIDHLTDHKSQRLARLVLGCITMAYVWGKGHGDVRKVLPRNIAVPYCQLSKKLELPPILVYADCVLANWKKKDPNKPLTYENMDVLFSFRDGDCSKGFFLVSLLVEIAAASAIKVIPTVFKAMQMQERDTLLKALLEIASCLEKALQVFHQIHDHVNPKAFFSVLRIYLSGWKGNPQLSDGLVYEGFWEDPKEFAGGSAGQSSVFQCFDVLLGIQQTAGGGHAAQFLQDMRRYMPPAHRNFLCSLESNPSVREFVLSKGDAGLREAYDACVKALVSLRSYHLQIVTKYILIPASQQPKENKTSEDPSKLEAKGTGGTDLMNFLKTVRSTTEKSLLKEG

Kd [1]: 1.5 ± 1.3 µM
Kd [2]: 1.2 ± 0.4 µM
B1: Purified GST-tagged human GAPDH (natural protein)
chain: not shown
